From patent US20050158302

Molecular target: GST-NFκBp65 C418 (GST-trans-activation domain only of NFκBp65) [GST: P08515]
Sequence (P08515 whole entry, looked up, the tested form may be a part): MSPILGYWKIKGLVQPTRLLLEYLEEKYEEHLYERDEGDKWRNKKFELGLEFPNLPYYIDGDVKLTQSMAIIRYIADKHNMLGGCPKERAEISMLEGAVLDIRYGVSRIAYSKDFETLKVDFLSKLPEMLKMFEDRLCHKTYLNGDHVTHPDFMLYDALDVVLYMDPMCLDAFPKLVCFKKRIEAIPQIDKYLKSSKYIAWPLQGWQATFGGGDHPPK

B1: Cdk8 (53 kD cytosolic protein kinase of Molt-4 extracts) (protein)
chain: MDYDFKVKLSSERERVEDLFEYEGCKVGRGTYGHVYKAKRKDGKDDKDYALKQIEGTGISMSACREIALLRELKHPNVISLQKVFLSHADRKVWLLFDYAEHDLWHIIKFHRASKANKKPVQLPRGMVKSLLYQILDGIHYLHANWVLHRDLKPANILVMGEGPERGRVKIADMGFARLFNSPLKPLADLDPVVVTFWYRAPELLLGARHYTKAIDIWAIGCIFAELLTSEPIFHCRQEDIKTSNPYHHDQLDRIFNVMGFPADKDWEDIKKMPEHSTLMKDFRRNTYTNCSLIKYMEKHKVKPDSKAFHLLQKLLTMDPIKRITSEQAMQDPYFLEDPLPTSDVFAGCQIPYPKREFLTEEEPDDKGDKKNQQQQQGNNHTNGTGHPGNQDSSHTQGPPLKKVRVVPPTTTSGGLIMTSDYQRSNPHAAYPNPGPSTSQPQSSMGYSATSQQPPQYSHQTHRY
  CTD phosphorylation in in vitro kinase reaction (GST-CTD substrate): kinase activity was only mildly detected in GST-NFκBp65 C418/cytosolic protein complexes
